Measured values as given in patent US20110212843.

Tests used:
[1] = molecular target: NF-kB p65 (Rel A) homodimer (UniProt Q04206); conditions: 1:1 stoichiometry
[2] = molecular target: NF-kB p50 homodimer (UniProt P19838); conditions: also captured on SELDI array; lost on more stringent wash
NF-kB p50 homodimer, sequence (P19838 1-433): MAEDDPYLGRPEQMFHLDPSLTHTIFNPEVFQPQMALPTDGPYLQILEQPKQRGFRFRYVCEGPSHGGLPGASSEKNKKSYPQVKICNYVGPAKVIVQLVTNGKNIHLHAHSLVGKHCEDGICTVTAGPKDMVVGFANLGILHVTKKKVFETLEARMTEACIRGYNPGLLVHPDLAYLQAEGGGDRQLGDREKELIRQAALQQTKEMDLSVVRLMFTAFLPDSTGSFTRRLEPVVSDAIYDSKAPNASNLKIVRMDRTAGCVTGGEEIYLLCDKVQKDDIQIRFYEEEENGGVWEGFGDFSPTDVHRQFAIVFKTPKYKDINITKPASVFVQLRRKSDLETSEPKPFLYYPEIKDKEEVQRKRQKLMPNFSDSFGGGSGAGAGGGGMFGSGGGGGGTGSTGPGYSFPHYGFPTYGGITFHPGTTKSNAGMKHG

NF-kB p65 (Rel A) homodimer, sequence (Q04206 whole entry): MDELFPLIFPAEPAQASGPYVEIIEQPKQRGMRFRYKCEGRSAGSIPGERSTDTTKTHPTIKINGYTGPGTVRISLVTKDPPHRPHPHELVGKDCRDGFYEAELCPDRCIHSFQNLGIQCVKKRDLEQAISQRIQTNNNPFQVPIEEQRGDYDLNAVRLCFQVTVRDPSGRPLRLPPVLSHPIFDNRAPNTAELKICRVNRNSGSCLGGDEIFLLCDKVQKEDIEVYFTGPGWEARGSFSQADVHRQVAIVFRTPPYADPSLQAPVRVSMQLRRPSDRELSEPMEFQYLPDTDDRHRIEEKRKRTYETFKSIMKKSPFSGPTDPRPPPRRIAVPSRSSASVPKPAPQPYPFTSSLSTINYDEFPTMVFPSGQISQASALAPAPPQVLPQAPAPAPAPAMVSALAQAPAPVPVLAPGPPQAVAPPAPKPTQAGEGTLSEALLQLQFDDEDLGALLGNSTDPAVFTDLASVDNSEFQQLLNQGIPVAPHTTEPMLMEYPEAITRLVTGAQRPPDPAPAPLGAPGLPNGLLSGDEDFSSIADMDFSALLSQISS

## IgkB 22-mer duplex (NF-kB promoter element)
[1]
  Kd: 4 nM
[2]
  Kd: 4 nM
